These results are taken from publication PMC11574045, “A cofactor-induced repressive type of transcription factor condensation can be induced by synthetic peptides to suppress tumorigenesis” (The EMBO Journal, 2024).

B1: RFX4 (protein, UniProt Q33E94 1-735, looked up)
Transcription factor RFX4: MHCGLLEEPDMDSTESWIERCLNESENKRYSSHTSLGNVSNDENEEKENNRASKPHSTPATLQWLEENYEIAEGVCIPRSALYMHYLDFCEKNDTQPVNAASFGKIIRQQFPQLTTRRLGTRGQSKYHYYGIAVKESSQYYDVMYSKKGAAWVSETGKKEVSKQTVAYSPRSKLGTLLPEFPNVKDLNLPASLPEEKVSTFIMMYRTHCQRILDTVIRANFDEVQSFLLHFWQGMPPHMLPVLGSSTVVNIVGVCDSILYKAISGVLMPTVLQALPDSLTQVIRKFAKQLDEWLKVALHDLPENLRNIKFELSRRFSQILRRQTSLNHLCQASRTVIHSADITFQMLEDWRNVDLNSITKQTLYTMEDSRDEHRKLITQLYQEFDHLLEEQSPIESYIEWLDTMVDRCVVKVAAKRQGSLKKVAQQFLLMWSCFGTRVIRDMTLHSAPSFGSFHLIHLMFDDYVLYLLESLHCQERANELMRAMKGEGSTAEVREEIILTEAAAPTPSPVPSFSPAKSATSVEVPPPSSPVSNPSPEYTGLSTTGAMQSYTWSLTYTVTTAAGSPAENSQQLPCMRNTHVPSSSVTHRIPVYPHREEHGYTGSYNYGSYGNQHPHPMQSQYPALPHDTAISGPLHYAPYHRSSAQYPFNSPTSRMEPCLMSSTPRLHPTPVTPRWPEVPSANTCYTSPSVHSARYGNSSDMYTPLTTRRNSEYEHMQHFPGFAYINGEASTGWAK
B2: RHOXF2 (protein, UniProt Q9BQY4 1-288, looked up)
Rhox homeobox family member 2: MEPPDQCSQYMTSLLSPAVDDEKELQDMNAMVLSLTEEVKEEEEDAQPEPEQGTAAGEKLKSAGAQGGEEKDGGGEEKDGGGAGVPGHLWEGDLEGTSGSDGNVEDSDQSEKEPGQQYSRPQGAVGGLEPGNAQQPNVHAFTPLQLQELERIFQREQFPSEFLRRRLARSMNVTELAVQIWFENRRAKWRRHQRALMARNMLPFMAVGQPVMVTAAEAITAPLFISGMRDDYFWDHSHSSSLCFPMPPFPPPSLPLPLMLLPPMPPAGQAEFGPFPFVIVPSFTFPNV
B3: RHOXF1 (protein, UniProt Q8NHV9 1-184, looked up)
Rhox homeobox family member 1: MARSLVHDTVFYCLSVYQVKISPTPQLGAASSAEGHVGQGAPGLMGNMNPEGGVNHENGMNRDGGMIPEGGGGNQEPRQQPQPPPEEPAQAAMEGPQPENMQPRTRRTKFTLLQVEELESVFRHTQYPDVPTRRELAENLGVTEDKVRVWFKNKRARCRRHQRELMLANELRADPDDCVYIVVD
B4: RNF14 (protein, UniProt Q9UBS8 1-474, looked up)
E3 ubiquitin-protein ligase …: MSSEDREAQEDELLALASIYDGDEFRKAESVQGGETRIYLDLPQNFKIFVSGNSNECLQNSGFEYTICFLPPLVLNFELPPDYPSSSPPSFTLSGKWLSPTQLSALCKHLDNLWEEHRGSVVLFAWMQFLKEETLAYLNIVSPFELKIGSQKKVQRRTAQASPNTELDFGGAAGSDVDQEEIVDERAVQDVESLSNLIQEILDFDQAQQIKCFNSKLFLCSICFCEKLGSECMYFLECRHVYCKACLKDYFEIQIRDGQVQCLNCPEPKCPSVATPGQVKELVEAELFARYDRLLLQSSLDLMADVVYCPRPCCQLPVMQEPGCTMGICSSCNFAFCTLCRLTYHGVSPCKVTAEKLMDLRNEYLQADEANKRLLDQRYGKRVIQKALEEMESKEWLEKNSKSCPCCGTPIEKLDGCNKMTCTGCMQYFCWICMGSLSRANPYKHFNDPGSPCFNRLFYAVDVDDDIWEDEVED
B5: ROG (protein, UniProt Q9Y2Y4 1-487, looked up)
Zinc finger and BTB …: MSLPPIRLPSPYGSDRLVQLAARLRPALCDTLITVGSQEFPAHSLVLAGVSQQLGRRGQWALGEGISPSTFAQLLNFVYGESVELQPGELRPLQEAARALGVQSLEEACWRARGDRAKKPDPGLKKHQEEPEKPSRNPERELGDPGEKQKPEQVSRTGGREQEMLHKHSPPRGRPEMAGATQEAQQEQTRSKEKRLQAPVGQRGADGKHGVLTWLRENPGGSEESLRKLPGPLPPAGSLQTSVTPRPSWAEAPWLVGGQPALWSILLMPPRYGIPFYHSTPTTGAWQEVWREQRIPLSLNAPKGLWSQNQLASSSPTPGSLPQGPAQLSPGEMEESDQGHTGALATCAGHEDKAGCPPRPHPPPAPPARSRPYACSVCGKRFSLKHQMETHYRVHTGEKPFSCSLCPQRSRDFSAMTKHLRTHGAAPYRCSLCGAGCPSLASMQAHMRGHSPSQLPPGWTIRSTFLYSSSRPSRPSTSPCCPSSSTT
B6: R-LIM (protein, UniProt Q9NVW2 1-624, looked up)
E3 ubiquitin-protein ligase …: MENSDSNDKGSGDQSAAQRRSQMDRLDREEAFYQFVNNLSEEDYRLMRDNNLLGTPGESTEEELLRRLQQIKEGPPPQNSDENRGGDSSDDVSNGDSIIDWLNSVRQTGNTTRSGQRGNQSWRAVSRTNPNSGDFRFSLEINVNRNNGSQNSENENEPSARRSSGENVENNSQRQVENPRSESTSARPSRSERNSTEALTEVPPTRGQRRARSRSPDHRRTRARAERSRSPLHPMSEIPRRSHHSISSQTFEHPLVNETEGSSRTRHHVTLRQQISGPELLSRGLFAASGTRNASQGAGSSDTAASGESTGSGQRPPTIVLDLQVRRVRPGEYRQRDSIASRTRSRSQTPNNTVTYESERGGFRRTFSRSERAGVRTYVSTIRIPIRRILNTGLSETTSVAIQTMLRQIMTGFGELSYFMYSDSDSEPTGSVSNRNMERAESRSGRGGSGGGSSSGSSSSSSSSSSSSSSSSSSSSPSSSSGGESSETSSDLFEGSNEGSSSSGSSGARREGRHRAPVTFDESGSLPFLSLAQFFLLNEDDDDQPRGLTKEQIDNLAMRSFGENDALKTCSVCITEYTEGNKLRKLPCSHEYHVHCIDRWLSENSTCPICRRAVLASGNRESVV
B7: RFXDC1 (protein, UniProt Q8HWS3 1-928, looked up)
DNA-binding protein RFX6: MAKVPELEDTFLQAQPAPQLSPGIQEDCCVQLLGKGLLVYPEETVYLAAEGQPGGEQGGGEKGEDPELPGAVKSEMHLNNGNFSSEEEDADNHDSKTKAADQYLSQKKTITQIVKDKKKQTQLTLQWLEENYIVCEGVCLPRCILYAHYLDFCRKEKLEPACAATFGKTIRQKFPLLTTRRLGTRGHSKYHYYGIGIKESSAYYHSVYSGKGLTRFSGSKLKNEGGFTRKYSLSSKTGTLLPEFPSAQHLVYQGCISKDKVDTLIMMYKTHCQCILDNAINGNFEEIQHFLLHFWQGMPDHLLPLLENPVIIDIFCVCDSILYKVLTDVLIPATMQEMPESLLADIRNFAKNWEQWVVSSLENLPEALTDKKIPIVRRFVSSLKRQTSFLHLAQIARPALFDQHVVNSMVSDIERVDLNSIGSQALLTISGSTDTESGIYTEHDSITVFQELKDLLKKNATVEAFIEWLDTVVEQRVIKTSKQNGRSLKKRAQDFLLKWSFFGARVMHNLTLNNASSFGSFHLIRMLLDEYILLAMETQFNNDKEQELQNLLDKYMKNSDASKAAFTASPSSCFLANRNKGSMVSSDAVKNESHVETTYLPLPSSQPGGLGPALHQFPAGNTDNMPLTGQMELSQIAGHLMTPPISPAMASRGSVINQGPMAGRPPSVGPVLSAPSHCSTYPEPIYPTLPQANHDFYSTSSNYQTVFRAQPHSTSGLYPHHTEHGRCMAWTEQQLSRDFFSGSCAGSPYNSRPPSSYGPSLQAQDSHNMQFLNTGSFNFLSNTGAASCQGATLPPNSPNGYYGSNINYPESHRLGSMVNQHVSVISSIRSLPPYSDIHDPLNILDDSGRKQTSSFYTDTSSPVACRTPVLASSLQTPIPSSSSQCMYGTSNQYPAQETLDSHGTSSREMVSSLPPINTVFMGTAAGGT
B8: BATF3 (protein, UniProt Q9NR55 1-127, looked up)
Basic leucine zipper …: MSQGLPAAGSVLQRSVAAPGNQPQPQPQQQSPEDDDRKVRRREKNRVAAQRSRKKQTQKADKLHEEYESLEQENTMLRREIGKLTEELKHLTEALKEHEKMCPLLLCPMNFVPVPPRPDPVAGCLPR
B9: RNF2 (protein, UniProt Q99496 2-336, looked up)
E3 ubiquitin-protein ligase …: SQAVQTNGTQPLSKTWELSLYELQRTPQEAITDGLEIVVSPRSLHSELMCPICLDMLKNTMTTKECLHRFCADCIITALRSGNKECPTCRKKLVSKRSLRPDPNFDALISKIYPSRDEYEAHQERVLARINKHNNQQALSHSIEEGLKIQAMNRLQRGKKQQIENGSGAEDNGDSSHCSNASTHSNQEAGPSNKRTKTSDDSGLELDNNNAAMAIDPVMDGASEIELVFRPHPTLMEKDDSAQTRYIKTSGNATVDHLSKYLAVRLALEELRSKGESNQMNLDTASEKQYTIYIATASGQFTVLNGSFSLELVSEKYWKVNKPMELYYAPTKEHK
B10: RNF6 (protein, UniProt Q9Y252 1-685, looked up)
E3 ubiquitin-protein ligase …: MNQSRSRSDGGSEETLPQDHNHHENERRWQQERLHREEAYYQFINELNDEDYRLMRDHNLLGTPGEITSEELQQRLDGVKEQLASQPDLRDGTNYRDSEVPRESSHEDSLLEWLNTFRRTGNATRSGQNGNQTWRAVSRTNPNNGEFRFSLEIHVNHENRGFEIHGEDYTDIPLSDSNRDHTANRQQRSTSPVARRTRSQTSVNFNGSSSNIPRTRLASRGQNPAEGSFSTLGRLRNGIGGAAGIPRANASRTNFSSHTNQSGGSELRQREGQRFGAAHVWENGARSNVTVRNTNQRLEPIRLRSTSNSRSRSPIQRQSGTVYHNSQRESRPVQQTTRRSVRRRGRTRVFLEQDRERERRGTAYTPFSNSRLVSRITVEEGEESSRSSTAVRRHPTITLDLQVRRIRPGENRDRDSIANRTRSRVGLAENTVTIESNSGGFRRTISRLERSGIRTYVSTITVPLRRISENELVEPSSVALRSILRQIMTGFGELSSLMEADSESELQRNGQHLPDMHSELSNLGTDNNRSQHREGSSQDRQAQGDSTEMHGENETTQPHTRNSDSRGGRQLRNPNNLVETGTLPILRLAHFFLLNESDDDDRIRGLTKEQIDNLSTRHYEHNSIDSELGKICSVCISDYVTGNKLRQLPCMHEFHIHCIDRWLSENCTCPICRQPVLGSNIANNG

This experiment has as its system HEK293FT cells transfected with TF library. The experiment can be described thus: Screening of TF condensates based on fluorescent puncta. Particulars: Figure 1B numerical data; TF library screen, one value per transcriptional factor. The experiment is classed as cell-based. In short, it runs like this:
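Each TF construct was introduced into HEK293FT cells using PEI at 4.8 μg/ml; glucose deprivation versus normal medium lasted 12 h. Automated confocal-style imaging of tagged TF staining, 50 fields per well, gave the puncta data.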
B1: the “Z score of condensed fraction” value was -0.3239.

For the molecule B2, the “Z score of condensed fraction” value is 1.459.

With B3, the “Z score of condensed fraction” value is on record as -0.9364. With B4, the “Z score of condensed fraction” value worked out at 0.4543. For the molecule B5, the “Z score of condensed fraction” value is -0.6823. The same measure for B6: -0.6236. As to B7, the “Z score of condensed fraction” value is given as 3.216.

As for B8, the “Z score of condensed fraction” value is -0.4698.

For B9, the “Z score of condensed fraction” value is listed as -0.7099.

With B10, the “Z score of condensed fraction” value was -1.108.
